Results taken from patent US20260176701A1 (BRIGHAM AND WOMEN S HOSPITAL, published 2026).
Each block holds one binder with its values, some of them ahead of it.

Columns and labels:
[1] = target: T1, recombinant human ORF1p (LINE-1 open reading frame 1 protein, L1RP) (human, UniProt Q9UN81 1-338); assay: screen of cloned llama nanobody candidates for binding to ORF1p
T1 construct: Expressed in E. coli, tag cleaved, monodisperse homotrimer; Immobilized on the CM5 chip in SPR; also called trimeric ORF1p
T1 sequence: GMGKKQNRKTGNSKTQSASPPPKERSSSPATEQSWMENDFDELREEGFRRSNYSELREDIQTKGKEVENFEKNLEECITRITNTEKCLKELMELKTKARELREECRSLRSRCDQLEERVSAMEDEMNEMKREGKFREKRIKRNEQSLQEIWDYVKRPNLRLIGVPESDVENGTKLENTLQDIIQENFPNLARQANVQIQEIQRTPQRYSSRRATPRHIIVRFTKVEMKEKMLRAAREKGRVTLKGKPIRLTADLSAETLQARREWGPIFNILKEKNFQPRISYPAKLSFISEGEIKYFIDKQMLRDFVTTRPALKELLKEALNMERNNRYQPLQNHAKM

[2] = target: T1, recombinant human ORF1p (LINE-1 open …); assay: Simoa sandwich calibration curves, panels titled capture/detector; AEB against recombinant ORF1p (axis 0.001-1000 pg/mL, log-log); dotted line = limit of detection
[3] = target: T1, recombinant human ORF1p (LINE-1 open …); assay: Simoa sandwich, recombinant ORF1p at 40 pg/mL in diluent buffer, signal/background heat map; capture on the x axis, detector on the y axis
Method: ORF1p Simoa assays. Simoa assays were performed on an HD-X Analyzer (Quanterix Corp.), with all assay reagents and consumables loaded onto the instrument according to the manufacturer's instructions. 250,000 capture beads and 250,000 helper (non-conjugated) beads were used in each Simoa assay. A three-step assay configuration was used for the first- and second-generation assays, consisting of a 15-minute target capture step (incubation of capture beads with 100 μL sample), 5-minute incubation with detector reagent (0.3 μg/mL for both first- and second-generation assays), and 5-minute incubation with streptavidin-β-galactosidase (150 pM for first-generation assay; 300 pM for second-generation assays). The beads were washed with System Wash Buffer 1 (Quanterix Corp.) after each assay step. Upon the final wash cycle, the beads were loaded together with the fluorogenic enzyme substrate resorufin β-D-galactopyranoside into a 216,000-microwell array, which was subsequently sealed with oil. Automated imaging and counting of “on” and “off” wells and calculation of average enzyme per bead (AEB) were performed by the instrument. Calibration curves were fit using a 4PL fit with a 1/y² weighting factor, and the limit of detection (LOD) was determined as three standard deviations above the blank.
Signal/background was also determined for a number of the pairs by Simoa using recombinant ORF1p protein in diluent buffer; the results are shown in FIG. 15. When the rabbit monoclonal antibodies were used as capture and detector, the background was high. The best combinations were the rabbit monoclonal antibodies as capture/Ab6 detector; Nb5-5 capture/rabbit monoclonal antibodies detector; and 4H1 capture/rabbit monoclonal antibody detector pairs.

[4] = target: T1, recombinant human ORF1p (LINE-1 open …); assay: ELISA screen of conditioned medium, then modified Simoa with Nb-5 or 4H1 beads and ORF1p
Excerpt: GenScript's MonoRab™ immunization and B cell cloning platform was used with purified, recombinant human ORF1p trimers. The 50 best-performing clones, determined by ELISA screening of the conditioned cell medium at multiple dilutions, were selected and used in a modified Simoa assay with two different detector beads (Nb-5, which is the C5 nanobody clone described above, or 4H1 (Sigma-Aldrich)). The ten best clones (62H12, 64C6, 33A8, 61A11, 36D12, 34H7, 50E9, 34C5, 55A6, and 42D10) all yielded up to 5-fold higher signal-to-noise than our best existing reagent, Ab6, (FIG. 13A).

B2: MT1038 (other)
nanobody concatemer: QVHLVESGGKLVQAGESLKLSCEVSGRTFSISGAGWFRQAPGKEREFVAAITWTGGYPYYDASVKGRFTISREDPDNTVYLSMNSLKPEDTAVYYCATRRAGDLDFSYAQQGRYDNWGQGTQVTVSGGGGSGGGGSGGGGSGGGGSDAAARDAAARDAAARGGGGSGGGGSGGGGSGGGGSGSMAQVHLVESGGKLVQAGESLKLSCEVSGRTFSISGAGWFRQAPGKEREFVAAITWTGGYPYYDASVKGRFTISREDPDNTVYLSMNSLKPEDTAVYYCATRRAGDLDFSYAQQGRYDNWGQGTQVTVSCGSGRCGSGRCGSGRCGSGRC
modifications: biotinylated on the C-terminal cysteine residues when used as detector
notes: also called Nb9-Nb9-7Cys anti-ORF1 Nb dimer 13 (long linker v2); 9-9-cys(long2)
binding result [2]: binds

B3: MT1036 (other)
nanobody concatemer: DVQLVESGGGLVQAGGSLRLSCAASGRTDDIYTMGWFRQGPGKEREFVAVISWSITRRSSITHYADSVKGRFTISGENAENTVYLQMNTLKPEDTAVYYCAAKTGYSGSMSSYQDYDSWGQGTQVTVSGGGGSGGGGSGGGGSGGGGSDAAARDAAARDAAARGGGGSGGGGSGGGGSGGGGSGSMAQVHLVESGGKLVQAGESLKLSCEVSGRTFSISGAGWFRQAPGKEREFVAAITWTGGYPYYDASVKGRFTISREDPDNTVYLSMNSLKPEDTAVYYCATRRAGDLDFSYAQQGRYDNWGQGTQVTVSCGSGRCGSGRCGSGRCGSGRC
modifications: biotinylated on the C-terminal cysteine residues when used as detector
notes: also called Nb2-Nb9-7Cys anti-ORF1 Nb dimer 11 (long linker v2); 2-9-cys(long2)
binding result [2]: binds

B5: MT1035 (bispecific antibody)
nanobody concatemer: QVQLVESGGDLVQAGGSLRLSCAVSGGTSSNYGMGWFRQAPGKEREFVSSISWSGSRTLYSDSVKGRFTISRDNAKNTVDLQMNSLKPEDTAVYYCTAVREYRDYPQRDNFDYWGQGTQVTVSGGGGSGGGGSGGGGSGGGGSDAAARDAAARDAAARGGGGSGGGGSGGGGSGGGGSMAQVQLVESGGDLVQAGGSLRLSCAVSGGTSSNYGMGWFRQAPGKEREFVSSISWSGSRTLYSDSVKGRFTISRDNAKNTVDLQMNSLKPEDTAVYYCTAVREYRDYPQRDNFDYWGQGTQVTVSCGSGRCGSGRCGSGRCGSGRC
modifications: biotinylated on the C-terminal cysteine residues when used as detector
notes: also called Nb5-Nb5-7Cys anti-ORF1 Nb dimer 10 (long linker v2); 5-5-cys(long2)
binding result [2]: binds

B7: MT1037 (bispecific antibody)
nanobody concatemer: QVQLVESGGDLVQAGGSLRLSCAVSGGTSSNYGMGWFRQAPGKEREFVSSISWSGSRTLYSDSVKGRFTISRDNAKNTVDLQMNSLKPEDTAVYYCTAVREYRDYPQRDNFDYWGQGTQVTVSGGGGSGGGGSGGGGSGGGGSDAAARDAAARDAAARGGGGSGGGGSGGGGSGGGGSGSMAQVHLVESGGKLVQAGESLKLSCEVSGRTFSISGAGWFRQAPGKEREFVAAITWTGGYPYYDASVKGRFTISREDPDNTVYLSMNSLKPEDTAVYYCATRRAGDLDFSYAQQGRYDNWGQGTQVTVSCGSGRCGSGRCGSGRCGSGRC
modifications: biotinylated on the C-terminal cysteine residues when used as detector
notes: also called Nb5-Nb9-7Cys anti-ORF1 Nb dimer 12 (long linker v2); 5-9-cys(long2)
binding result [2]: binds

B8: MT1032 (bispecific antibody)
nanobody concatemer: QVQLVESGGDLVQAGGSLRLSCAVSGGTSSNYGMGWFRQAPGKEREFVSSISWSGSRTLYSDSVKGRFTISRDNAKNTVDLQMNSLKPEDTAVYYCTAVREYRDYPQRDNFDYWGQGTQVTVSGGGGSGGGGSGGGGSGGGGSMAQVQLVESGGDLVQAGGSLRLSCAVSGGTSSNYGMGWFRQAPGKEREFVSSISWSGSRTLYSDSVKGRFTISRDNAKNTVDLQMNSLKPEDTAVYYCTAVREYRDYPQRDNFDYWGQGTQVTVSCGSGRCGSGRCGSGRCGSGRC
modifications: biotinylated on the C-terminal cysteine residues when used as detector
notes: also called Nb5-Nb5-7Cys anti-ORF1 Nb dimer 7 (short linker); Nb 5-5-cys (short)
binding result [2]: binds

Results, then the binder that gave them:

binding result [1]: binds
B1: anti-ORF1 Nanobody 1 (Nb1) (VHH)
VHH: DVQLVESGGGLVQAGESLRLSCAASGRTLSSLNMAWFRQVPGKERDFVSLISRSGSTDYVHSVRGRFTISRDNAKNTVYLEMNSLKPEDTAVYYCAADDNYNGRYPFRDEYEYWGQGTQVTVSH
notes: Llama nanobody

binding result [3]: binds
B4: 62H12 (antibody, V domains shown)
VH: QSVKESGGRLVTPGTPLTLICTVSGFSLSRYAVGWVRQAPGKGLEWIGYIWSGGYTDYANWAKGRFTISKTSTTVDLKITSPTTEDTATYFCAREGDSDDYIYLNLWGPGTLVTVSS
VL: ALVMTQTPSSVSAAVGGTVTINCQASESISSYLAWYQQKSGQPPKLLIYRASTLASGVPSRFKGSGSGTEFTLTIGDLECADAATYYCQQGYTSFNVDKAFGGGTEVVVK
notes: Rabbit monoclonal antibody (GenScript MonoRab); also called 62H12-1; 62H2

binding result [4]: binds
B6: 50E9 (antibody, V domains shown)
VH: QSVEESGGRLVTPGTPLTLTCTVSGFSLSRHYMSWVRQAPGKGLEWIGIIYDDDNRDHASWAKGRFTISRTSTTVDLKITSPTTEDTATYFCARVYASYGYALNLWGQGTLVIVSS
VL: ALVMTQTPPSVSAAVGGTVTINCQASESITNWLAWYQQKPGQPPKLLIYDASKLASGVSSRFSGSGSGTQFTLTISRVQCDDAATYYCQQGYTWNNIDNVFGGGTEVVVK
notes: Rabbit monoclonal antibody; also called 50E9-2
